This series concerns the molecule itself. Description: FRET or BRET; same proteoliposomes after cholesterol delivery by dialysis against cholesterol-loaded mβCD (up to 24 h); protein-to-lipid ratio 1:16,000; 30°C; relative FRET efficiency.

Results on one protein are retold here after publication PMC12256852, “Reversible tuning of membrane sterol levels by cyclodextrin in a dialysis setting” (Biophysical Journal, 2025).

B1: MBP-Ire1^(P501-K570, C552S) with a C-terminal cysteine (domain or fragment, Saccharomyces cerevisiae)
chain: PEDLEAYRKKIHEQISRELDEKNQNSLLLKFGSLVYRIIETGVFLLLFLIFSAILQRFKILPPLYVLLSKC
modifications: C-terminal cysteine modified by maleimide chemistry with ATTO514 (FRET donor), ATTO594 (FRET acceptor) or NEM (unlabeled)
notes: Ire1 from Saccharomyces cerevisiae, residues P501 to K570: the entire transmembrane region with the amphipathic helix and the short transmembrane helix; endogenous cysteine 552 replaced by serine; single cysteine introduced at the C-terminal end of the construct for labeling; Donor-labeled (ATTO514) and acceptor-labeled (ATTO594) copies of the same construct were co-reconstituted; also called …
For the protein B1, the binding result is reported as “binds”.
